Columns and labels:
[1] = target: T1, rat B7-H3 on CHO-S (rat, UniProt Q7TPB4); test: FACS
T1 chain: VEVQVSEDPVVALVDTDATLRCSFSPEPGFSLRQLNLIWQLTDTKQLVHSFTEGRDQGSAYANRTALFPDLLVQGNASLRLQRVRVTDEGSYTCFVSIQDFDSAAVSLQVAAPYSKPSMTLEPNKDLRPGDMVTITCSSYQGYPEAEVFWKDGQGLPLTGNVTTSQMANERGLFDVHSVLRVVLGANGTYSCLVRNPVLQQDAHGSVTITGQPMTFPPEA

[2] = target: T2, human B7-2 (human, UniProt P42081); test: ELISA
T2 chain: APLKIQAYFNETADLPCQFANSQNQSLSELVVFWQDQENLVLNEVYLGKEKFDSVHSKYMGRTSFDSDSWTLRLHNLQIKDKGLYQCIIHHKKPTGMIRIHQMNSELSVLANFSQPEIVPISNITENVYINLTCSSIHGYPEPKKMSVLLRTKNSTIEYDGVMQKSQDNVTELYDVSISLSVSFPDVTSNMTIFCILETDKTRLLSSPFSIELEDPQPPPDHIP

[3] = target: T3, human B7-H4 (human, UniProt Q7Z7D3); test: ELISA
T3 chain: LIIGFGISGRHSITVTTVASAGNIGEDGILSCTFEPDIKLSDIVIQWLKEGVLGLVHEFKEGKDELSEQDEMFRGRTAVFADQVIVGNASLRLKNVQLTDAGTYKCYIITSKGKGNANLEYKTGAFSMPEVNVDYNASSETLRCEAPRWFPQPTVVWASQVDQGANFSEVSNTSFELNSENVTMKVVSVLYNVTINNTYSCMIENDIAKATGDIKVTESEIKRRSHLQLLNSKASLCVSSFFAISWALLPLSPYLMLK

[4] = target: human B7-H1 (human, UniProt Q9NZQ7); test: ELISA
[5] = target: T4, rat B7-H3 (rat, UniProt Q7TPB4); test: BLI
T4 chain: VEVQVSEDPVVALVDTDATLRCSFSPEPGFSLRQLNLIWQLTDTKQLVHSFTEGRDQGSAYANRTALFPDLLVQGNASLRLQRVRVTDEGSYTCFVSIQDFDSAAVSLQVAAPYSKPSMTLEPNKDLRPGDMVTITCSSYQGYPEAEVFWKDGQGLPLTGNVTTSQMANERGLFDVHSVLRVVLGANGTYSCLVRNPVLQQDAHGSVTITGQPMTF

[6] = target: T5, human B7-H2 (human, UniProt O75144); test: ELISA
T5 chain: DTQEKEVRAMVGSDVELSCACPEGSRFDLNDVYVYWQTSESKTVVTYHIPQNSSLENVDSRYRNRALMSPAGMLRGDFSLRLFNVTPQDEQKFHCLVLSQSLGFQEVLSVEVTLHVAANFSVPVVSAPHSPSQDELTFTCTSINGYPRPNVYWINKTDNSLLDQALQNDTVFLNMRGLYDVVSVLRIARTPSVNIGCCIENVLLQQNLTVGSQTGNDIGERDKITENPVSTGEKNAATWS

[7] = target: T6, human B7-1 (human, UniProt P33681); test: ELISA
T6 chain: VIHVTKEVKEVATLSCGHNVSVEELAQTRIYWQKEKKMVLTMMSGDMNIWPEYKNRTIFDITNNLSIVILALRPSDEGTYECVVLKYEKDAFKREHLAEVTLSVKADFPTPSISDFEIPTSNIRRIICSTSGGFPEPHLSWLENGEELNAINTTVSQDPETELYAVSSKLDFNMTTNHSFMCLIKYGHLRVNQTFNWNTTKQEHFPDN

human B7-H1, sequence (Q9NZQ7 19-238): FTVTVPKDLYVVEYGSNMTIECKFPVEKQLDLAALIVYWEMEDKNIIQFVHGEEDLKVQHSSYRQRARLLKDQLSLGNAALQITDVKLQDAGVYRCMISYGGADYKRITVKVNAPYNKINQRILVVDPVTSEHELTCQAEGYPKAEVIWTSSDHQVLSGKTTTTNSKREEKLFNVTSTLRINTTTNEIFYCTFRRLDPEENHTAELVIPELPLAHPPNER

binding result [1]: no binding
binding result [2]: no binding
binding result [3]: no binding
binding result [4]: no binding
binding result [5]: no binding
binding result [6]: no binding
binding result [7]: no binding
B1: 2#8890 (antibody, V domains shown)
VH: QVQLQESGPGLVQPSGTLSLTCAVSGGSDSSTNWWTWVRQSPGQGLEWIGEISPIGFTSYSPSLRSRVTISVDKSKTQFSLKLSSVTAADTAVYYCARDRLYFAFWGQGTLVTVSS
VL: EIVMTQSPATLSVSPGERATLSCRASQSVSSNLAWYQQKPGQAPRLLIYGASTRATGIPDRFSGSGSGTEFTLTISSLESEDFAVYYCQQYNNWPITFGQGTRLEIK
